Experiments:
[1] = target: T1, CD19 on NALM-6 cells (UniProt P15391 20-556, limits assumed); assay: cell-based or functional assay
T1 sequence (looked up): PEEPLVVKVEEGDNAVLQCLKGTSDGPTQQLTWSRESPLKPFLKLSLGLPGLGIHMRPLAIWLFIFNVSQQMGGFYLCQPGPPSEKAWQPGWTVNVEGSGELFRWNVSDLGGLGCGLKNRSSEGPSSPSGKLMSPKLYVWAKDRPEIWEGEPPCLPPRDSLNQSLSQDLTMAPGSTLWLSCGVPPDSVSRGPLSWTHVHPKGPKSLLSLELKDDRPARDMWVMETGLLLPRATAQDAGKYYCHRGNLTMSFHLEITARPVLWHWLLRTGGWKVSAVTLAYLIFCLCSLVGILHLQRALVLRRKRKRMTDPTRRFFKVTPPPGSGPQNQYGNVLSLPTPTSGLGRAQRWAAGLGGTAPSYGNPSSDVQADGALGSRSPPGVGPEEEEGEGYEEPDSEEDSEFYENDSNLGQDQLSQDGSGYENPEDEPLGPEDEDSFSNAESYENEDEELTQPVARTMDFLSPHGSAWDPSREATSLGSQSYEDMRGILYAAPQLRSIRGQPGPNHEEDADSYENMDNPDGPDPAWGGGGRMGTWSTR

[2] = target: MICA on PANC-1, BXPC-3 or K562 cells (UniProt Q29983 24-383, limits assumed); assay: cell-based or functional assay
Sequence of MICA on PANC-1, BXPC-3 or K562 cells (Q29983 24-383 limits assumed): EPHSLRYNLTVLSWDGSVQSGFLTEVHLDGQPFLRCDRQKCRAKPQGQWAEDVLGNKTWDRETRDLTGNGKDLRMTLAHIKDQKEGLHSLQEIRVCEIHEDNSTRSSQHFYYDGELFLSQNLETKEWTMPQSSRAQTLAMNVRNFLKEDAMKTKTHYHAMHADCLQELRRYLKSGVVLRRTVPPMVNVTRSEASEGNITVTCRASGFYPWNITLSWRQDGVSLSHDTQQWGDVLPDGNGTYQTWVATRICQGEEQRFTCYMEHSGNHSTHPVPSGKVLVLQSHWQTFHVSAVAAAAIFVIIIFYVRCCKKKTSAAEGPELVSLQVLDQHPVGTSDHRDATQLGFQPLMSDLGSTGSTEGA

B1: IgFD-6(anti-CD19/CD3) (bispecific antibody, human IgG1, kappa)
chain 1: EVQLVESGGGLVQPGGSLRLSCAASGFTFNTYAMNWVRQAPGKGLEWVARIRSKYNNYATYYADSVKDRFTISRDDSKNTLYLQMNSLRAEDTAVYYCVRHGNFGNSYVSWFAYWGQGTLVTVSSASTKGPSVFPLAPSSKSTSGGTAALGCLVKDYFPEPVTVSWNSGALTSGVHTFPAVLQSSGLYSLSSVVTVPSSSLGTQTYICNVNHKPSNTKVDKKVEPKSCDKTHTCPPCPAPPVAGPSVFLFPPKPKDTLMISRTPEVTCVVVDVSHEDPEVKFNWYVDGVEVHNAKTKPREEQYNSTYRVVSVLTVLHQDWLNGKEYKCKVSNKGLPSSIEKTISKAKGQPREPQVYTLPPSRDELTKNQVSLTCLVKGFYPSDIAVEWESNGQPENNYKTTPPVLDSDGSFFLYSKLTVDKSRWQQGNVFSCSVMHEALHNHYTQKSLSLSPGKSGGGGSGGGGSGGGGSDIQMTQTTSSLSASLGDRVTISCRASQDISKYLNWYQQKPDGTVKLLIYHTSRLHSGVPSRFSGSGSGTDYSLTISNLEQEDIATYFCQQGNTLPYTFGGGTKLEITGGGGSGGGGSGGGGSEVKLQESGPGLVAPSQSLSVTCTVSGVSLPDYGVSWIRQPPRKGLEWLGVIWGSETTYYNSALKSRLTIIKDNSKSQVFLKMNSLQTDDTAIYYCAKHYYYGGSYAMDYWGQGTSVTVSS
chain 2: QAVVTQEPSLTVSPGGTVTLTCRSSTGAVTTSNYANWVQQKPDHLFRGLIGGTNKRAPGTPARFSGSLLGDKAALTISGAQPEDEAEYYCALWYSNLWVFGGGTKLTVLKRTVAAPSVFIFPPSDEQLKSGTASVVCLLNNFYPREAKVQWKVDNALQSGNSQESVTEQDSKDSTYSLSSTLTLSKADYEKHKVYACEVTHQGLSSPVTKSFNRGECDKTHTCPPCPAPPVAGPSVFLFPPKPKDTLMISRTPEVTCVVVDVSHEDPEVKFNWYVDGVEVHNAKTKPREEQYNSTYRVVSVLTVLHQDWLNGKEYKCKVSNKGLPSSIEKTISKAKGQPREPQVYTLPPSRDELTKNQVSLTCLVKGFYPSDIAVEWESNGQPENNYKTTPPVLDSDGSFFLYSKLTVDKSRWQQGNVFSCSVMHEALHNHYTQKSLSLSPGK
Promotion for the specific killing effect of PBMCs on target cells by heterodimers (EC50, pM); Nalm-6 cells [1]: 14.9 pM

B2: IgFD-7(anti-CD19/CD3) (bispecific antibody, human IgG1, kappa)
chain 1: EVQLVESGGGLVQPGGSLRLSCAASGFTFNTYAMNWVRQAPGKGLEWVARIRSKYNNYATYYADSVKDRFTISRDDSKNTLYLQMNSLRAEDTAVYYCVRHGNFGNSYVSWFAYWGQGTLVTVSSASTKGPSVFPLAPSSKSTSGGTAALGCLVKDYFPEPVTVSWNSGALTSGVHTFPAVLQSSGLYSLSSVVTVPSSSLGTQTYICNVNHKPSNTKVDKKVEPKSCDKTHTCPPCPAPPVAGPSVFLFPPKPKDTLMISRTPEVTCVVVDVSHEDPEVKFNWYVDGVEVHNAKTKPREEQYNSTYRVVSVLTVLHQDWLNGKEYKCKVSNKGLPSSIEKTISKAKGQPREPQVYTLPPSRDELTKNQVSLTCLVKGFYPSDIAVEWESNGQPENNYKTTPPVLDSDGSFFLYSKLTVDKSRWQQGNVFSCSVMHEALHNHYTQKSLSLSPGK
chain 2: QAVVTQEPSLTVSPGGTVTLTCRSSTGAVTTSNYANWVQQKPDHLFRGLIGGTNKRAPGTPARFSGSLLGDKAALTISGAQPEDEAEYYCALWYSNLWVFGGGTKLTVLKRTVAAPSVFIFPPSDEQLKSGTASVVCLLNNFYPREAKVQWKVDNALQSGNSQESVTEQDSKDSTYSLSSTLTLSKADYEKHKVYACEVTHQGLSSPVTKSFNRGECDKTHTCPPCPAPPVAGPSVFLFPPKPKDTLMISRTPEVTCVVVDVSHEDPEVKFNWYVDGVEVHNAKTKPREEQYNSTYRVVSVLTVLHQDWLNGKEYKCKVSNKGLPSSIEKTISKAKGQPREPQVYTLPPSRDELTKNQVSLTCLVKGFYPSDIAVEWESNGQPENNYKTTPPVLDSDGSFFLYSKLTVDKSRWQQGNVFSCSVMHEALHNHYTQKSLSLSPGKSGGGGSGGGGSGGGGSDIQMTQTTSSLSASLGDRVTISCRASQDISKYLNWYQQKPDGTVKLLIYHTSRLHSGVPSRFSGSGSGTDYSLTISNLEQEDIATYFCQQGNTLPYTFGGGTKLEITGGGGSGGGGSGGGGSEVKLQESGPGLVAPSQSLSVTCTVSGVSLPDYGVSWIRQPPRKGLEWLGVIWGSETTYYNSALKSRLTIIKDNSKSQVFLKMNSLQTDDTAIYYCAKHYYYGGSYAMDYWGQGTSVTVSS
Promotion for the specific killing effect of PBMCs on target cells by heterodimers (EC50, pM); Nalm-6 cells [1]: 11.7 pM

B3: IgFD-37(anti-CD3/MICA) (Fc fusion)
chain 1: EVQLVESGGGLVQPGGSLRLSCAASGFTFNTYAMNWVRQAPGKGLEWVARIRSKYNNYATYYADSVKDRFTISRDDSKNTLYLQMNSLRAEDTAVYYCVRHGNFGNSYVSWFAYWGQGTLVTVSSASTKGPSVFPLAPSSKSTSGGTAALGCLVKDYFPEPVTVSWNSGALTSGVHTFPAVLQSSGLYSLSSVVTVPSSSLGTQTYICNVNHKPSNTKVDKKVEPKSCDKTHTCPPCPAPPVAGPSVFLFPPKPKDTLMISRTPEVTCVVVDVSHEDPEVKFNWYVDGVEVHNAKTKPREEQYNSTYRVVSVLTVLHQDWLNGKEYKCKVSNKGLPSSIEKTISKAKGQPREPQVYTLPPCRDELTKNQVSLWCLVKGFYPSDIAVEWESNGQPENNYKTTPPVLDSDGSFFLYSKLTVDKSRWQQGNVFSCSVMHEALHNHYTQKSLSLSPGKGGSGAKLAALKAKLAALKGGGGSFLNSLFNQEVQIPLTESYCGPCPKNWICYKNNCYQFFDESKNWYESQASCMSQNASLLKVYSKEDQDLLKLVKSYHWMGLVHIPTNGSWQWEDGSILSPNLLTIIEMQKGDCALYASSFKGYIENCSTPNTYICMQRTV
chain 2: QAVVTQEPSLTVSPGGTVTLTCRSSTGAVTTSNYANWVQQKPDHLFRGLIGGTNKRAPGTPARFSGSLLGDKAALTISGAQPEDEAEYYCALWYSNLWVFGGGTKLTVLKRTVAAPSVFIFPPSDEQLKSGTASVVCLLNNFYPREAKVQWKVDNALQSGNSQESVTEQDSKDSTYSLSSTLTLSKADYEKHKVYACEVTHQGLSSPVTKSFNRGECDKTHTCPPCPAPPVAGPSVFLFPPKPKDTLMISRTPEVTCVVVDVSHEDPEVKFNWYVDGVEVHNAKTKPREEQYNSTYRVVSVLTVLHQDWLNGKEYKCKVSNKGLPSSIEKTISKAKGQPREPQVCTLPPSRDELTKNQVSLSCAVKGFYPSDIAVEWESNGQPENNYKTTPPVLDSDGSFFLVSKLTVDKSRWQQGNVFSCSVMHEALHNHYTQKSLSLSPGKGGSGAKLAALKAKLAALKGGGGSFLNSLFNQEVQIPLTESYCGPCPKNWICYKNNCYQFFDESKNWYESQASCMSQNASLLKVYSKEDQDLLKLVKSYHWMGLVHIPTNGSWQWEDGSILSPNLLTIIEMQKGDCALYASSFKGYIENCSTPNTYICMQRTV
Promotion for the specific killing effect of PBMCs on target cells by heterodimers (EC50, pM); K562 cells, LDH assay [2]: 1090 pM | Promotion for the specific killing effect of PBMCs on target cells by heterodimers (EC50, pM); PANC-1 cells, LDH assay [2]: 676 pM

From patent US20220089722A1 (NANTONG YICHEN BIOPHARMA, published 2022)
